{"source": "patent CN101627111A", "biological_target": "Fcγ受体(FcγR)", "assay": "cell-based or functional assay", "data": [{"substance": "2C11 huG1, HEK (145-2C11 variable regions on human IgG1/kappa, expressed in HEK 293E cells) (from UniProt P01857 1-330) (antibody)", "values": [{"measurement": "T cell activation in vivo (markers on splenocytes of dosed Balb/c mice, flow cytometry)", "result": "4 倍"}]}]}
